Like-named read-outs stand apart in the source and are kept apart here. Blank lines part the entries; values can stand above or below the substance they belong to.
Experiments:
Sm, Smith antigen = assay: Luminex AtheNA Multi-Lyte ANA test
CentrB, centromere B = assay: Luminex AtheNA Multi-Lyte ANA test
[1] = target: SSB, Sjogren syndrome antigen B (Homo sapiens (Human)) (UniProt P05455); assay: Luminex AtheNA Multi-Lyte ANA test
Jo1 antigen = assay: Luminex AtheNA Multi-Lyte ANA test
Histone = assay: Luminex AtheNA Multi-Lyte ANA test
RNP, ribonucleoprotein = assay: Luminex AtheNA Multi-Lyte ANA test
[2] = target: SSA, Sjogren's syndrome antigen A; assay: Luminex AtheNA Multi-Lyte ANA test
Scl 70, scleroderma 70 = assay: Luminex AtheNA Multi-Lyte ANA test
6631.V3.C10 (HIV-1) [3] = target: 6631.V3.C10 (HIV-1)
[4] = target: gp120 of X2088 (HIV-1 strain X2088.c9)
6631.V3.C10 (HIV-1) [5] = target: 6631.V3.C10 (HIV-1); remark: listed apart in the source
[6] = target: gp120 of X2088 (HIV-1 strain X2088.c9); remark: listed apart in the source
CAAN.A2 (HIV-1) [7] = target: CAAN.A2 (HIV-1)
N280A (HIV-1) = assay: gp120 capture ELISA
G366A (HIV-1) = assay: gp120 capture ELISA
[8] = target: monomeric gp120^JRCSF (HIV-1 strain JRCSF) (UniProt P20871); assay: gp120 capture ELISA
G472A (HIV-1) = assay: gp120 capture ELISA
D457A (HIV-1) = assay: gp120 capture ELISA
P369A (HIV-1) = assay: gp120 capture ELISA
M373A (HIV-1) = assay: gp120 capture ELISA
N197T (HIV-1) = assay: gp120 capture ELISA
E370A (HIV-1) = assay: gp120 capture ELISA
N332A (HIV-1) = assay: gp120 capture ELISA
V372A (HIV-1) = assay: gp120 capture ELISA
D368A (HIV-1) = assay: gp120 capture ELISA
G367A (HIV-1) = assay: gp120 capture ELISA
G471A (HIV-1) = assay: gp120 capture ELISA
N262A (HIV-1) = assay: gp120 capture ELISA
R469A (HIV-1) = assay: gp120 capture ELISA
G473A (HIV-1) = assay: gp120 capture ELISA
I371A (HIV-1) = assay: gp120 capture ELISA
S365A (HIV-1) = assay: gp120 capture ELISA
K282A (HIV-1) = assay: gp120 capture ELISA
R476A (HIV-1) = assay: gp120 capture ELISA
T283A (HIV-1) = assay: gp120 capture ELISA
D167N (HIV-1) = assay: gp120 capture ELISA
I467A (HIV-1) = assay: gp120 capture ELISA
D279A (HIV-1) = assay: gp120 capture ELISA
D474A (HIV-1) = assay: gp120 capture ELISA
M475A (HIV-1) = assay: gp120 capture ELISA
CAAN.A2 (HIV-1) [9] = target: CAAN.A2 (HIV-1); remark: listed apart in the source
[10] = target: gp120 Resurfaced Stabilized Core (RSC3); assay: ELISA on coated RSC3

Sequence of CentrB, centromere B (P07199 2-599): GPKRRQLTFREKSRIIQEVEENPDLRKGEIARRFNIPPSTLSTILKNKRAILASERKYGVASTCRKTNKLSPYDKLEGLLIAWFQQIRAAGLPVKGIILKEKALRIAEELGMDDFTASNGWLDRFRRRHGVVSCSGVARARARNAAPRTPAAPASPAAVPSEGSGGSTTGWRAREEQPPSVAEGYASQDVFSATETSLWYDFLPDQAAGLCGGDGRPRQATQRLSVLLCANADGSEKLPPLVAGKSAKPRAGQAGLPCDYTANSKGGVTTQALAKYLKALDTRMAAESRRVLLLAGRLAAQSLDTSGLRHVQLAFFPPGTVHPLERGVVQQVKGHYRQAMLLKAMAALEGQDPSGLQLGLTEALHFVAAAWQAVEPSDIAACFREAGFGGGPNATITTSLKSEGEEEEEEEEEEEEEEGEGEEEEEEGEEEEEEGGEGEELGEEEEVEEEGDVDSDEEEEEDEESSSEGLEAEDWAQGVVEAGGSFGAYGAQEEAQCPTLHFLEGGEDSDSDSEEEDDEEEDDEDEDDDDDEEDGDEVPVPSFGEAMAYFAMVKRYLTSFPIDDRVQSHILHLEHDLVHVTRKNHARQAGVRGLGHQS
Sequence of SSB, Sjogren syndrome antigen B (Homo sapiens (Human)) (P05455 whole entry): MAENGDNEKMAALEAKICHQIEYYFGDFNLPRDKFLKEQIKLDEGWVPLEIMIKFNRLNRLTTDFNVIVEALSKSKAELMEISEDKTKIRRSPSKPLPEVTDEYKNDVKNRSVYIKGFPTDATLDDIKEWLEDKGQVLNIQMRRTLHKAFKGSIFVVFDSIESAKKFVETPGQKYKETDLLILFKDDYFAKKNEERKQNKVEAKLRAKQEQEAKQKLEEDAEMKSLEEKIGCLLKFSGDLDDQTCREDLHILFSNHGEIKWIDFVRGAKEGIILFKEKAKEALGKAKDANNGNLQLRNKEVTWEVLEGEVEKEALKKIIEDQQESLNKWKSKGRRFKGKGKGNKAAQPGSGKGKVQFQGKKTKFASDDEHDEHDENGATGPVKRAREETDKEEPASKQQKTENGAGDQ

Luminex reactivity (unit not given) (Sm, Smith antigen): 6.6
Luminex reactivity (unit not given) (CentrB, centromere B): 3
Luminex reactivity (unit not given) [1]: 161
Luminex reactivity (unit not given) (Jo1 antigen): 146
Luminex reactivity (unit not given) (Histone): 9
Luminex reactivity (unit not given) (RNP, ribonucleoprotein): 9
Luminex reactivity (unit not given) [2]: 31
Luminex reactivity (unit not given) (Scl 70, scleroderma 70): 8
Substance: 4E10 (antibody)

Substance: N6 with FRL3 of VRC01 (antibody)
neutralisation IC50 (6631.V3.C10 (HIV-1) [3]): > 50 µg/mL
neutralisation IC50 [4]: > 50 µg/mL

Substance: N6 heavy chain with VRC27 light chain (antibody)
neutralisation IC50 (6631.V3.C10 (HIV-1) [5]): 0.285 µg/mL
neutralisation IC50 [6]: > 50 µg/mL
neutralisation IC50 (CAAN.A2 (HIV-1) [7]): 0.278 µg/mL

Substance: VRC27 (antibody)
neutralisation IC50 (CAAN.A2 (HIV-1) [7]): 0.264 µg/mL
Binding affinity relative to WT (%) (N280A (HIV-1)): 0%
Binding affinity relative to WT (%) (G366A (HIV-1)): 3%
Binding affinity relative to WT (%) [8]: 100%
Binding affinity relative to WT (%) (G472A (HIV-1)): 0%
Binding affinity relative to WT (%) (D457A (HIV-1)): 19%
Binding affinity relative to WT (%) (P369A (HIV-1)): 38%
Binding affinity relative to WT (%) (M373A (HIV-1)): 23%
Binding affinity relative to WT (%) (N197T (HIV-1)): 28%
Binding affinity relative to WT (%) (E370A (HIV-1)): 2%
Binding affinity relative to WT (%) (N332A (HIV-1)): 57%
Binding affinity relative to WT (%) (V372A (HIV-1)): 15%
Binding affinity relative to WT (%) (D368A (HIV-1)): 0%
Binding affinity relative to WT (%) (G367A (HIV-1)): 0%
Binding affinity relative to WT (%) (G471A (HIV-1)): 131%
Binding affinity relative to WT (%) (N262A (HIV-1)): 0%
Binding affinity relative to WT (%) (R469A (HIV-1)): 0%
Binding affinity relative to WT (%) (G473A (HIV-1)): 6%
Binding affinity relative to WT (%) (I371A (HIV-1)): 0%
Binding affinity relative to WT (%) (S365A (HIV-1)): 107%
Binding affinity relative to WT (%) (K282A (HIV-1)): 57%
Binding affinity relative to WT (%) (R476A (HIV-1)): 37%
Binding affinity relative to WT (%) (T283A (HIV-1)): 15%
Binding affinity relative to WT (%) (D167N (HIV-1)): 37%
Binding affinity relative to WT (%) (I467A (HIV-1)): 27%
Binding affinity relative to WT (%) (D279A (HIV-1)): 7%
Binding affinity relative to WT (%) (D474A (HIV-1)): 0%
Binding affinity relative to WT (%) (M475A (HIV-1)): 35%

Substance: N6 with CDRH3 of VRC01 (antibody)
neutralisation IC50 (T250-4 (HIV-1)): 4.52 µg/mL

Substance: N6 with FRL1 of VRC01 (antibody)
neutralisation IC50 (6631.V3.C10 (HIV-1) [3]): 0.642 µg/mL
neutralisation IC50 [4]: 1.14 µg/mL
neutralisation IC50 (CAAN.A2 (HIV-1) [9]): 1.01 µg/mL

Substance: N6 with FRH3 of VRC01 (antibody)
neutralisation IC50 (6631.V3.C10 (HIV-1) [3]): 0.152 µg/mL

Substance: VRC07 N6CDRH3 (antibody)
neutralisation IC50 (CAAN.A2 (HIV-1) [9]): 2.18 µg/mL

Substance: N6 heavy chain with VRC01 light chain (antibody)
neutralisation IC50 (6631.V3.C10 (HIV-1) [5]): 1.04 µg/mL
neutralisation IC50 [6]: > 50 µg/mL
neutralisation IC50 (CAAN.A2 (HIV-1) [7]): 0.211 µg/mL

Substance: VRC08 N6CDRH3 (antibody)
neutralisation IC50 (CAAN.A2 (HIV-1) [9]): > 50 µg/mL

Substance: N6 with CDRH1 of VRC01 (antibody)
neutralisation IC50 (T250-4 (HIV-1)): > 50 µg/mL
neutralisation IC50 (6631.V3.C10 (HIV-1) [3]): > 50 µg/mL
neutralisation IC50 [4]: 2.08 µg/mL

Substance: 3BNC117 (antibody)
Binding affinity relative to WT (%) (N280A (HIV-1)): 36%
Binding affinity relative to WT (%) (G366A (HIV-1)): 27%
Binding affinity relative to WT (%) [8]: 100%
Binding affinity relative to WT (%) (G472A (HIV-1)): 56%
Binding affinity relative to WT (%) (D457A (HIV-1)): 84%
Binding affinity relative to WT (%) (P369A (HIV-1)): 75%
Binding affinity relative to WT (%) (M373A (HIV-1)): 133%
Binding affinity relative to WT (%) (N197T (HIV-1)): 101%
Binding affinity relative to WT (%) (E370A (HIV-1)): 31%
Binding affinity relative to WT (%) (N332A (HIV-1)): 82%
Binding affinity relative to WT (%) (V372A (HIV-1)): 62%
Binding affinity relative to WT (%) (D368A (HIV-1)): 16%
Binding affinity relative to WT (%) (G367A (HIV-1)): 25%
Binding affinity relative to WT (%) (G471A (HIV-1)): 164%
Binding affinity relative to WT (%) (N262A (HIV-1)): 33%
Binding affinity relative to WT (%) (R469A (HIV-1)): 97%
Binding affinity relative to WT (%) (G473A (HIV-1)): 40%
Binding affinity relative to WT (%) (I371A (HIV-1)): 40%
Binding affinity relative to WT (%) (S365A (HIV-1)): 90%
Binding affinity relative to WT (%) (K282A (HIV-1)): 3%
Binding affinity relative to WT (%) (R476A (HIV-1)): 171%
Binding affinity relative to WT (%) (T283A (HIV-1)): 71%
Binding affinity relative to WT (%) (D167N (HIV-1)): 95%
Binding affinity relative to WT (%) (I467A (HIV-1)): 87%
Binding affinity relative to WT (%) (D279A (HIV-1)): 0%
Binding affinity relative to WT (%) (D474A (HIV-1)): 38%
Binding affinity relative to WT (%) (M475A (HIV-1)): 169%

Substance: 2G12 (antibody)
EC50 (read off the curve) [10]: 0.03 µg/mL
Binding affinity relative to WT (%) [8]: 100%
Binding affinity relative to WT (%) (N332A (HIV-1)): 3%

— patent US20180298083A1
